Patent publication US20240279298A1 (BEIJING TUO JIE BIOPHARMACEUTICAL CO. LTD., priority 2021, published 2024)
Structures can show the parent of a compound that is named as a salt. [ ]: non-standard residue; d: D form. Aib = CC(C)(N)C(=O)O

Columns and labels:
in vitro = details: human, human kidney microsomes
human kidney microsomes = assay: Stability in human kidney microsome incubation system
[1] = test system: insulin-induced hypoglycemia rat model; assay: Efficacy in insulin-induced hypoglycemic rat model; format: in vivo, SD rats; details: insulin 0.65 IU/kg subcutaneous at T0, phosphate buffer at 45 min (model control)
[2] = molecular target: human glucagon receptor (GCGR) (human, UniProt P47871 26-477); assay: cell-based or functional assay
[3] = molecular target: human glucagon-like peptide-1 receptor (GLP-1R) (human, UniProt P43220 24-463); assay: cell-based or functional assay
[4] = molecular target: T1, human glucose-dependent insulinotropic polypeptide receptor (GIPR) (human, UniProt P48546 22-466); assay: cell-based or functional assay
T1 sequence (looked up): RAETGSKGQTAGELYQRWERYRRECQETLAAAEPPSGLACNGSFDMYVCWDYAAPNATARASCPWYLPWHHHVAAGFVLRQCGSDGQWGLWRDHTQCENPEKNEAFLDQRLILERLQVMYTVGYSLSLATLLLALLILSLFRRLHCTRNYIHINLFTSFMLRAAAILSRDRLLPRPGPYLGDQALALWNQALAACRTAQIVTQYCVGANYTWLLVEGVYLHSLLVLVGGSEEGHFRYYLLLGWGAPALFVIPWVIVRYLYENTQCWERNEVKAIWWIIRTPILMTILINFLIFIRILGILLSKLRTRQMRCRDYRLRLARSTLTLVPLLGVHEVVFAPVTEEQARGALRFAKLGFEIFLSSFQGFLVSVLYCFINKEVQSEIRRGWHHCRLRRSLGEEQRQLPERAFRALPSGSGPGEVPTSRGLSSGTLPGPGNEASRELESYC

Chain of human glucagon receptor (GCGR) (P47871 26-477): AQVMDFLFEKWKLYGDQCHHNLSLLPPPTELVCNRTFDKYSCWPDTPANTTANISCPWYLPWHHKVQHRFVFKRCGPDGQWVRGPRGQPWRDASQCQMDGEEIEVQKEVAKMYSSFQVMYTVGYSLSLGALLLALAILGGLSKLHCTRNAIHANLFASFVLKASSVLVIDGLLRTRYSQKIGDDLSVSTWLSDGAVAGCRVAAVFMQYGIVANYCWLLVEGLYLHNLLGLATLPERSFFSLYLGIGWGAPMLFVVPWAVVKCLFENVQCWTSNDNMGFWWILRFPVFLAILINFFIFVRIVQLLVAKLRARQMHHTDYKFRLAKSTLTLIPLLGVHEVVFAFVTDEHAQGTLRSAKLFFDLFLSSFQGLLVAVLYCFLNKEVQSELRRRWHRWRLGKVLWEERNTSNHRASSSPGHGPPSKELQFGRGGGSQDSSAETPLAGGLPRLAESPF

Molecule: CN(C)CCCOc1nn(Cc2ccccc2)c2ccccc12 [Benzydamine hydrochloride, benzydamine hydrochloride]
- half-life at 1 μM (in vitro): 1.1 h
- remaining at 0.25 h, 1 μM (in vitro): 83.1%
- remaining at 0.5 h, 1 μM (in vitro): 70.8%
- remaining at 1 h, 1 μM (in vitro): 54.2%
- Percentage residues 0 min (human kidney microsomes; With NADPH): 100.0%
- Percentage residues 120 min (human kidney microsomes; With NADPH): 28.12%
- Percentage residues 0 min (human kidney microsomes; Without NADPH): 100.0%
- Percentage residues 15 min (human kidney microsomes; Without NADPH): 85.59%
- Percentage residues 30 min (human kidney microsomes; Without NADPH): 86.82%
- Percentage residues 60 min (human kidney microsomes; Without NADPH): 90.39%
- Percentage residues 120 min (human kidney microsomes; Without NADPH): 90.95%

Molecule: Insulin: insulin, 0.65 IU/kg subcutaneous, used to induce hypoglycemia in the modeling groups [reference compound]
- Blood glucose 60 min [1]: 3.47 mmol/L
- Blood glucose 75 min [1]: 4.15 mmol/L
- Blood glucose 90 min [1]: 4.85 mmol/L
- Blood glucose 105 min [1]: 5.42 mmol/L

B1: Glucagon analog compound 42 (peptide)
peptide: H-HSQGTFTSDYSKYLDI[Aib]RAQEFVQWLEST-OH
SMILES: CC[C@H](C)[C@H](NC(=O)[C@H](CC(=O)O)NC(=O)[C@H](CC(C)C)NC(=O)[C@H](Cc1ccc(O)cc1)NC(=O)[C@H](CCCCN)NC(=O)[C@H](CO)NC(=O)[C@H](Cc1ccc(O)cc1)NC(=O)[C@H](CC(=O)O)NC(=O)[C@H](CO)NC(=O)[C@@H](NC(=O)[C@H](Cc1ccccc1)NC(=O)[C@@H](NC(=O)CNC(=O)[C@H](CCC(N)=O)NC(=O)[C@H](CO)NC(=O)[C@@H](N)Cc1c[nH]cn1)[C@@H](C)O)[C@@H](C)O)C(=O)NC(C)(C)C(=O)N[C@@H](CCCNC(=N)N)C(=O)N[C@@H](C)C(=O)N[C@@H](CCC(N)=O)C(=O)N[C@@H](CCC(=O)O)C(=O)N[C@@H](Cc1ccccc1)C(=O)N[C@H](C(=O)N[C@@H](CCC(N)=O)C(=O)N[C@@H](Cc1c[nH]c2ccccc12)C(=O)N[C@@H](CC(C)C)C(=O)N[C@@H](CCC(=O)O)C(=O)N[C@@H](CO)C(=O)N[C@H](C(=O)O)[C@@H](C)O)C(C)C
- Human GCGR receptor EC50 (nM), cAMP HTRF in CHO-K1/GCGR/CRE-Luc cells [2]: 0.093 nM
- Relative activity (%) (normalized by the activity of the native glucagon), cAMP HTRF [2]: 207%
- GLP-1R % Activity relative to native GLP-1, cAMP HTRF [3]: 0.291%
- GLP-1R EC50 (nM), cAMP HTRF in CHO-GLP-1R cells [3]: 92.1 nM
- GIPR % Activity relative to native GIP, cAMP HTRF [4]: < 0.07%
- GIPR EC50 (nM), cAMP HTRF in CHO-K1/GIPR cells [4]: > 100 nM

B2: Glucagon analog compound 43 (peptide)
peptide: H-HSHGTFTSDYSKYLDL[Aib]RAQEFVQWLEST-OH
SMILES: CC(C)C[C@H](NC(=O)[C@H](Cc1ccc(O)cc1)NC(=O)[C@H](CCCCN)NC(=O)[C@H](CO)NC(=O)[C@H](Cc1ccc(O)cc1)NC(=O)[C@H](CC(=O)O)NC(=O)[C@H](CO)NC(=O)[C@@H](NC(=O)[C@H](Cc1ccccc1)NC(=O)[C@@H](NC(=O)CNC(=O)[C@H](Cc1c[nH]cn1)NC(=O)[C@H](CO)NC(=O)[C@@H](N)Cc1c[nH]cn1)[C@@H](C)O)[C@@H](C)O)C(=O)N[C@@H](CC(=O)O)C(=O)N[C@@H](CC(C)C)C(=O)NC(C)(C)C(=O)N[C@@H](CCCNC(=N)N)C(=O)N[C@@H](C)C(=O)N[C@@H](CCC(N)=O)C(=O)N[C@@H](CCC(=O)O)C(=O)N[C@@H](Cc1ccccc1)C(=O)N[C@H](C(=O)N[C@@H](CCC(N)=O)C(=O)N[C@@H](Cc1c[nH]c2ccccc12)C(=O)N[C@@H](CC(C)C)C(=O)N[C@@H](CCC(=O)O)C(=O)N[C@@H](CO)C(=O)N[C@H](C(=O)O)[C@@H](C)O)C(C)C
- Human GCGR receptor EC50 (nM), cAMP HTRF in CHO-K1/GCGR/CRE-Luc cells [2]: 0.052 nM
- Relative activity (%) (normalized by the activity of the native glucagon), cAMP HTRF [2]: 371%

B3: Glucagon analog compound 47 (peptide)
peptide: H-HSHGTFTSDYSKYLDL[Aib]RAQEFVEWLEST-OH
SMILES: CC(C)C[C@H](NC(=O)[C@H](Cc1ccc(O)cc1)NC(=O)[C@H](CCCCN)NC(=O)[C@H](CO)NC(=O)[C@H](Cc1ccc(O)cc1)NC(=O)[C@H](CC(=O)O)NC(=O)[C@H](CO)NC(=O)[C@@H](NC(=O)[C@H](Cc1ccccc1)NC(=O)[C@@H](NC(=O)CNC(=O)[C@H](Cc1c[nH]cn1)NC(=O)[C@H](CO)NC(=O)[C@@H](N)Cc1c[nH]cn1)[C@@H](C)O)[C@@H](C)O)C(=O)N[C@@H](CC(=O)O)C(=O)N[C@@H](CC(C)C)C(=O)NC(C)(C)C(=O)N[C@@H](CCCNC(=N)N)C(=O)N[C@@H](C)C(=O)N[C@@H](CCC(N)=O)C(=O)N[C@@H](CCC(=O)O)C(=O)N[C@@H](Cc1ccccc1)C(=O)N[C@H](C(=O)N[C@@H](CCC(=O)O)C(=O)N[C@@H](Cc1c[nH]c2ccccc12)C(=O)N[C@@H](CC(C)C)C(=O)N[C@@H](CCC(=O)O)C(=O)N[C@@H](CO)C(=O)N[C@H](C(=O)O)[C@@H](C)O)C(C)C
- Human GCGR receptor EC50 (nM), cAMP HTRF in CHO-K1/GCGR/CRE-Luc cells [2]: 0.076 nM
- Relative activity (%) (normalized by the activity of the native glucagon), cAMP HTRF [2]: 253%

B4: Glucagon analog compound 39 (peptide)
peptide: H-HSQGTFTSDYSKYLDT[Aib]RAQEFVQWLEST-OH
SMILES: CC(C)C[C@H](NC(=O)[C@H](Cc1c[nH]c2ccccc12)NC(=O)[C@H](CCC(N)=O)NC(=O)[C@@H](NC(=O)[C@H](Cc1ccccc1)NC(=O)[C@H](CCC(=O)O)NC(=O)[C@H](CCC(N)=O)NC(=O)[C@H](C)NC(=O)[C@H](CCCNC(=N)N)NC(=O)C(C)(C)NC(=O)[C@@H](NC(=O)[C@H](CC(=O)O)NC(=O)[C@H](CC(C)C)NC(=O)[C@H](Cc1ccc(O)cc1)NC(=O)[C@H](CCCCN)NC(=O)[C@H](CO)NC(=O)[C@H](Cc1ccc(O)cc1)NC(=O)[C@H](CC(=O)O)NC(=O)[C@H](CO)NC(=O)[C@@H](NC(=O)[C@H](Cc1ccccc1)NC(=O)[C@@H](NC(=O)CNC(=O)[C@H](CCC(N)=O)NC(=O)[C@H](CO)NC(=O)[C@@H](N)Cc1c[nH]cn1)[C@@H](C)O)[C@@H](C)O)[C@@H](C)O)C(C)C)C(=O)N[C@@H](CCC(=O)O)C(=O)N[C@@H](CO)C(=O)N[C@H](C(=O)O)[C@@H](C)O
- Human GCGR receptor EC50 (nM), cAMP HTRF in CHO-K1/GCGR/CRE-Luc cells [2]: 0.072 nM
- Relative activity (%) (normalized by the activity of the native glucagon), cAMP HTRF [2]: 268%
- GLP-1R % Activity relative to native GLP-1, cAMP HTRF [3]: 0.212%
- GLP-1R EC50 (nM), cAMP HTRF in CHO-GLP-1R cells [3]: 127 nM
- GIPR % Activity relative to native GIP, cAMP HTRF [4]: < 0.07%
- GIPR EC50 (nM), cAMP HTRF in CHO-K1/GIPR cells [4]: > 100 nM

B5: Glucagon analog compound 40 (peptide)
peptide: H-HSQGTFTSDYSKYLDL[Aib]RAQEFVQWLEST-OH
SMILES: CC(C)C[C@H](NC(=O)[C@H](Cc1ccc(O)cc1)NC(=O)[C@H](CCCCN)NC(=O)[C@H](CO)NC(=O)[C@H](Cc1ccc(O)cc1)NC(=O)[C@H](CC(=O)O)NC(=O)[C@H](CO)NC(=O)[C@@H](NC(=O)[C@H](Cc1ccccc1)NC(=O)[C@@H](NC(=O)CNC(=O)[C@H](CCC(N)=O)NC(=O)[C@H](CO)NC(=O)[C@@H](N)Cc1c[nH]cn1)[C@@H](C)O)[C@@H](C)O)C(=O)N[C@@H](CC(=O)O)C(=O)N[C@@H](CC(C)C)C(=O)NC(C)(C)C(=O)N[C@@H](CCCNC(=N)N)C(=O)N[C@@H](C)C(=O)N[C@@H](CCC(N)=O)C(=O)N[C@@H](CCC(=O)O)C(=O)N[C@@H](Cc1ccccc1)C(=O)N[C@H](C(=O)N[C@@H](CCC(N)=O)C(=O)N[C@@H](Cc1c[nH]c2ccccc12)C(=O)N[C@@H](CC(C)C)C(=O)N[C@@H](CCC(=O)O)C(=O)N[C@@H](CO)C(=O)N[C@H](C(=O)O)[C@@H](C)O)C(C)C
- Human GCGR receptor EC50 (nM), cAMP HTRF in CHO-K1/GCGR/CRE-Luc cells [2]: 0.06 nM
- Relative activity (%) (normalized by the activity of the native glucagon), cAMP HTRF [2]: 318%
- GLP-1R % Activity relative to native GLP-1, cAMP HTRF [3]: 0.192%
- GLP-1R EC50 (nM), cAMP HTRF in CHO-GLP-1R cells [3]: 140 nM
- GIPR % Activity relative to native GIP, cAMP HTRF [4]: < 0.07%
- GIPR EC50 (nM), cAMP HTRF in CHO-K1/GIPR cells [4]: > 100 nM

B6: Glucagon analog compound 41 (peptide)
peptide: H-HSQGTFTSDYSKYLDV[Aib]RAQEFVQWLEST-OH
SMILES: CC(C)C[C@H](NC(=O)[C@H](Cc1c[nH]c2ccccc12)NC(=O)[C@H](CCC(N)=O)NC(=O)[C@@H](NC(=O)[C@H](Cc1ccccc1)NC(=O)[C@H](CCC(=O)O)NC(=O)[C@H](CCC(N)=O)NC(=O)[C@H](C)NC(=O)[C@H](CCCNC(=N)N)NC(=O)C(C)(C)NC(=O)[C@@H](NC(=O)[C@H](CC(=O)O)NC(=O)[C@H](CC(C)C)NC(=O)[C@H](Cc1ccc(O)cc1)NC(=O)[C@H](CCCCN)NC(=O)[C@H](CO)NC(=O)[C@H](Cc1ccc(O)cc1)NC(=O)[C@H](CC(=O)O)NC(=O)[C@H](CO)NC(=O)[C@@H](NC(=O)[C@H](Cc1ccccc1)NC(=O)[C@@H](NC(=O)CNC(=O)[C@H](CCC(N)=O)NC(=O)[C@H](CO)NC(=O)[C@@H](N)Cc1c[nH]cn1)[C@@H](C)O)[C@@H](C)O)C(C)C)C(C)C)C(=O)N[C@@H](CCC(=O)O)C(=O)N[C@@H](CO)C(=O)N[C@H](C(=O)O)[C@@H](C)O
- Human GCGR receptor EC50 (nM), cAMP HTRF in CHO-K1/GCGR/CRE-Luc cells [2]: 0.058 nM
- Relative activity (%) (normalized by the activity of the native glucagon), cAMP HTRF [2]: 333%
- GLP-1R % Activity relative to native GLP-1, cAMP HTRF [3]: 0.231%
- GLP-1R EC50 (nM), cAMP HTRF in CHO-GLP-1R cells [3]: 116 nM
- GIPR % Activity relative to native GIP, cAMP HTRF [4]: < 0.07%
- GIPR EC50 (nM), cAMP HTRF in CHO-K1/GIPR cells [4]: > 100 nM
